Source: the supplement of paper PMC9170038

Test system: MS2 coat protein
Test: apparent KD of MS2 coat protein; designed switch direction (-1 OFF switch, 1 ON switch): -1; higher = weaker reporter binding
Summary of the method: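 Transcription of designed RNA switches on Illumina chips was done by stalled E. coli RNA polymerase. SNAP-549-labelled MS2 coat protein was then titrated in doubling steps from 0.7 or 1.5 nM to 3 µM, with steps of 0.8–1.5 h at the lowest and 10–20 min at the highest concentration. The per-design median over clusters of curve-fitted normalised fluorescence is reported as apparent KD.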

[1] = Eterna round: R95, input ligand: FMN 200 uM
[2] = Eterna round: R95, input ligand: microRNA oligo, concentration not stated
[3] = Eterna round: R95, input ligand: none
[4] = input ligand: microRNA oligo, concentration not stated

Sequence	apparent KD of MS2 coat protein (input ligand: FMN 200 uM)	apparent KD of MS2 coat protein (input ligand: none)	apparent KD of MS2 coat protein [1]	apparent KD of MS2 coat protein [2]	apparent KD of MS2 coat protein [3]	apparent KD of MS2 coat protein [4]
ACGCCGCAAGGAUAUACUUGCGGUGAUGUUCGAGUUCUUCUACUUGAGGAUCACCCAAGUAGAAGGUGCGAUGG [jl-ex2.4.61 ViennaUCT mod] (Eterna round: R97, puzzle: Exclusion 2)	13.7 nM	13.8 nM				
CUUAGACAUGAGGAUCACCCAUGUGAGGAUAUGAUGCGAAUAAGGAAGGAAGAAAGCAUCAGAAGGCACAUAUG [Mat - Mod of Hyphema D25] (puzzle: Exclusion 1)			161 nM	139 nM	104 nM	
UUAACAUGCUGGUGAUCAUACAUGAGGAUCACCCAUGUAACAAGCUUUUUGUUCGUCUUAUAAUUUAAGAUCACCAG [Stov1/7-B1] (Eterna round: R97, puzzle: Sensor, turn-off variant 1)	21.6 nM	20.3 nM				
AUAUAGUCAGGAUAUCGAAAUAUAUAUUAAUAUAUAUAAUACGAGAAGGGACAUGAGGAUCACCCAUGUAGUAA [JR_Exclusion4)Sub001] (puzzle: Exclusion 4)				23.7 nM		
UUUAAUUUUUUUUUUUUACAAGCUUUUUGCUCGUCUUAUACAUGAGGAUCACCCAUGUAAAUGGAAGAUAAAUUAUC [JMF 7] (puzzle: Sensor v3, turn-off variant 2)			16.7 nM	18.1 nM	17.3 nM	
AGUGACUUAGGAUAUUGGCAUGAAGACAUGAGGAUCACCCAUGUCCUCGUAGUCAUUCGCCGAGAAGGGAGAGAUU [Eternabot (L2) Solution 50] (Eterna round: R97, puzzle: Exclusion 5)	126 nM	84.4 nM				
ACCAGCAUACGGAGAUCCAACAUGAGGAUCACCCAUGUCUGGAAAGCUUUUUGCUUGUCUUAUCCUCCUCUGUGUGU [Design #5] (Eterna round: R97, puzzle: Sensor, turn-off variant 1)	30.2 nM	32.2 nM				
AAUAACAGAGGAUAUACUAUUUUAUGUAUUUAUUAUUUUAAACAUGAGGAUCACCCAUGUAGAAGGCUGAAUAA [JMF 11] (puzzle: Exclusion 2)				19.8 nM		
CGAGGUAGAGGAUAUACGUGGAUGUAAAUUCAUGUUAAUCUACAUGAGGAUCACCCAUGUAGAAGGCUAUAGCG [JR_Ex2_Sub076] (Eterna round: R97, puzzle: Exclusion 2)	27.8 nM	30.6 nM				
ACUAGGCGAGGAUAUACAUGCUUAACGCAGGAAAAGCUGCGACAUGAGGAUCACCCAUGUAGAAGGCGCAAAUA [Xege] (Eterna round: R96, puzzle: Exclusion 2)	78.1 nM	20 nM				14.6 nM
AUCGUGCAGCUUUGCUGUACGAGUACAUGAGGAUCACCCAUGUAGGAUAUGGUACGCUUUGCGUGCCAGAAGGACGUGCGUUAG [salish99_ExNG3_r04_003] (Eterna round: R96, puzzle: Exclusion NG 3)	63.2 nM	43.7 nM				34.3 nM
GCCAGAGCAGGAUAUUCAAUAUCACACAUGAGGAUCACCCAUGUCCAGCGAAAGCUGGAGGGAGAAGGGCUCUGGC [Fiskers Ex 5 - 12] (puzzle: Exclusion 5)			18.8 nM	61.4 nM	88.2 nM	
AAUGCGAGUGUUAGGAUAUACAAGGAUCCAUAUUUGUAGAAGGAACAUGAGGAUCACCCAUGUAAGGGAAUAAA [Enususxebe] (puzzle: Brourd's mod of Exclusion 4)			166 nM	59.5 nM	65.7 nM	
GUGUAAUGUGAGGAUAUGUGUUUCGUUAGCUGCACAGAAGGCACAACAUGAGGAUCACCCAUGUGGGCAGGGCC [Eternabot (L1) Solution 10] (Eterna round: R97, puzzle: Exclusion 6)	59.4 nM	19 nM				
CUGCUCCGUGUAGGAUAUGCGCGCACCACCCGCGCAGAAGGACAUGAGGAUCACCCAUGUAUGUUAUUAUCACGUGUGGCGCGC [Design 38] (Eterna round: R96, puzzle: Exclusion NG 1)	12.6 nM	15.9 nM				11.1 nM
GCACGGAGUGUAGGAUAUUAGUGCGAUUAGCACUGAGAAGGACAUGAGGAUCACCCAUGUUCCUCAAUAAAAUACCUUCCGUGC [Eli exng1 - 040] (Eterna round: R96, puzzle: Exclusion NG 1)	13.4 nM	13.7 nM				10 nM
GCUGGAAAAGGAUAUACAUAACGUGCGUCGGCACGAGAUCUACAUGAGGAUCACCCAUGUAGAAGGUUUCCAGC [EX2 #73] (Eterna round: R97, puzzle: Exclusion 2)	33.4 nM	14.3 nM				

Sequence	apparent KD of MS2 coat protein (input ligand: FMN 200 uM)	apparent KD of MS2 coat protein (input ligand: none)	apparent KD of MS2 coat protein [1]	apparent KD of MS2 coat protein [2]	apparent KD of MS2 coat protein [3]	apparent KD of MS2 coat protein [4]
GGUGUCUUCAGAAGACAUGAGGAUCACCCAUGUAAAUGCACUGAGGAUAUACGGGCGACCGGCGUGUAGAAGGUAGAGCACGAA [Bivezale] (Eterna round: R96, puzzle: Exclusion NG 3)	13.7 nM	17.5 nM				8.37 nM
UAUGAUGCAGGAUAUACAUGAGGAUCACCCAUGUCUCCAAGGGAUAAAGCCAGGCGCUGUAGAAGGGCGACGAC [Eternabot (L1) Solution 28] (Eterna round: R97, puzzle: Exclusion 3)	26.9 nM	27.4 nM				
AGUACUAACACGAAAGUGUUAGUACAAUAAGCUUGUGAAACAUGAGGAUCACCCAUGUCCUCAUAAGCUCGUCUUGU [salish99_TOv2_r3_009] (puzzle: Sensor v3, turn-off variant 2)			15.2 nM	353 nM	13.7 nM	
UCUCCUCCCGUAAGGAUAUUCAUGCGUACCACGCGGAAGAAGGUACAUGAGGAUCACCCAUGUAAUUAACACCG [BmEX4 B.9] (Eterna round: R97, puzzle: Brourd's mod of Exclusion 4)	30.7 nM	24.3 nM				
UCCGUUUGAGGAUAUAUGUAGACAAACAUGAGGAUCACCCAUGUCGGGAUCGAAAUGUCCGUAGAAGGCAAACUGG [Eternabot (L2) Solution 13] (Eterna round: R97, puzzle: Exclusion 5)	65.2 nM	22.9 nM				
AAUUCACAUGAGGAUCACCCAUGUCAGGAUAUGGUUUCGCGGGUUUCGGUGCGUGAGGCCAGAAGGGACAGCUA (puzzle: Exclusion 1)				49.2 nM		
AGUACUAACACGCAUGUGUUAGUACAAUAAGCUUGUGAAACAUGAGGAUCACCCAUGUCCUCAUAAGCUCGUCUUAU [salish99_TOv2_r3_068] (Eterna round: R96, puzzle: Sensor v3, turn-off variant 2)	14.8 nM	17.2 nM				415 nM
UCCGAACAUGAGGAUCACCCAUGUGAGGAUAUCCCGAGAUUAAAUGCCGCAAGAAGGCGGAGAAGGCGCAUGGG [Biditiinen] (puzzle: Exclusion 1)			20.6 nM	17.3 nM	19.5 nM	
GAGAAGUGAGGAUAUACGAUAAGGAUGAAAGGAAGGAAUGAGUAGAAGGCACAUGAGGAUCACCCAUGUAGAGU [JR_Exclu4_Sub079] (puzzle: Exclusion 4)			24.1 nM	25.1 nM	26.3 nM	
AGAUGCUCAAGUCGACAUGAGGAUCACCCAUGUACAGUUAAUGAGGAUAUCCGAGAUAAAUAAUAGGAGAAGGUAUGAUCAUGA [Ex NG3 #5] (Eterna round: R96, puzzle: Exclusion NG 3)	86.7 nM	59.5 nM				175 nM
AUAAUAAAGGAGGAUAUCGUUACGGAAACGUAACGAGAAGGUCUAACAUGAGGAUCACCCAUGUUCCUCAAAUA [Mat - Exclusion 6 - Eli Mod - D53] (puzzle: Exclusion 6)			49.9 nM	36.4 nM	37.4 nM	
GCCGUGUUAGGAUAUCGCUCGACGAAUAGUUGUCGGAGGAACGAGAAGGAACAUGAGGAUCACCCAUGUGUCAC [Eternabot (L1) Solution 33] (Eterna round: R97, puzzle: Exclusion 4)	57.5 nM	21.4 nM				
CUACUGAAGCUUUGCUUUAGUCGUACAUGAGGAUCACCCAUGUAGGAUAUGGUAGGCUUUGCUUACUAGAAGGAUAGAGUGAUC [salish99_ExNG3_r04_601] (Eterna round: R96, puzzle: Exclusion NG 3)	80.9 nM	58.1 nM				38.3 nM
ACAUGAGGAUCACCCAUGUCCGGCUGGUCCGUUUCGGCUGUCGAGGAUAUAGUUCGGUGUUCGCGCUAGAAGGCGGGAGCUGGC [Aenatbe mod 60] (Eterna round: R96, puzzle: Exclusion NG 3)	206 nM	114 nM				68.7 nM
UCAUGGAAGCAGGAUAUGCUUGUUUAAUUGUUUGCAGAAGGGCUAACAUGAGGAUCACCCAUGUAAGAGGUCUA [JR_E6_Sub063] (Eterna round: R96, puzzle: Exclusion 6)	59.6 nM	72.5 nM				53.3 nM
UUUAAUUUUUUUUUUUUACAAGCUUUUUGCUCGUCUUAUACAUGAGGAUCACCCAUGUGGAUGGAGGGUAAAUUAUC [JMF 85] (puzzle: Sensor v3, turn-off variant 2)			14.4 nM	25.6 nM	16.9 nM	
CCUUAGGGAGGAUAUACAUGAGGAUCACCCAUGUACCGCGGCGCGUUCACACGGGUGGGUAGAAGGCCCUCACU [Colors] (Eterna round: R97, puzzle: Exclusion 3)	463 nM	540 nM				
